Data: US20040141918

Test system: Int6 protein expressed in bacteria using the QUIA Express Type 4 vector, purified
Sequence (chain, as listed by the source): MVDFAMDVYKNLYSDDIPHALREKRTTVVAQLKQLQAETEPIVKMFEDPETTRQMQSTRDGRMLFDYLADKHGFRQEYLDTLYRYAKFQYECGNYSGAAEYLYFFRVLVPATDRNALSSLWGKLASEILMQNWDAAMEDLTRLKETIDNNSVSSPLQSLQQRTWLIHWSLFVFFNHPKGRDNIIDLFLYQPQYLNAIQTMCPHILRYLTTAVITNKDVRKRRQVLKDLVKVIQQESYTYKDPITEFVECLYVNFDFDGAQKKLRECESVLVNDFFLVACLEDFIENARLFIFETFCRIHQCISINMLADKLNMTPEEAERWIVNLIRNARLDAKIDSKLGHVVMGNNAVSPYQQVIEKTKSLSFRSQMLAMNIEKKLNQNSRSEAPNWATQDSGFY

protein kinase C was tested, and the “phosphorylation by PKC” value was “shown to be phosphorylated by PKC (data not shown)”.
